From PMC7683652 (Nature Communications, 2020)

Molecular target: the molecule itself
Test: SEC; size exclusion chromatography of the truncated TDP-43 proteins against molecular weight standards (Supplementary Fig. 3a); conditions not shown

B1: TDP-43 N-terminal region (aa 1-100) (domain or fragment, UniProt Q13148 1-100, looked up)
chain: MSEYIRVTEDENDEPIEIPSEDDGTVLLSTVTAQFPGACGLRYRNPVSQCMRGVRLVEGILHAPDAGWGNLVYVVNYPKDNKRKMDETDASSAVKVKRAV
notes: the methods say aa; 1-101; calculated 12.5 kDa; C-terminal limit is printed as 100 (results, legend) and as 101 (methods); also called N-terminal TDP-43; source: E. coli M15 (pQE30), purified (Ni-NTA)
stoichiometry N: 2
